{"source": "the DeepSol protein solubility set", "data": [{"test": "soluble on expression in E. coli; label from the status in PepcDB or PDB records", "values": [{"sequence": "MSDSPIGSSQQVEPEHRTPDLMDIDPLIANLKALHEETRSDDDDDGQPSTSAKRKDSRADGIVIHQKKYSDPGRFLWIWLLGVRVPALSIDGEPHLPIEILDDMLTKKDKKDQMSFQNLLRYKNVYIRMASPSQFRAVMEKSKECENLNITSLSLMSRSDIERIMGELRLESMLTLAEHDNWDISDRVHVVHVNFIDYCSEWLESDDLEEDVMQSGTHGYWYKNRRNMRCIECQHCEGKFTPTDFIMHHHYPIKPSGFVHTGCNSFQWIRLIEVFDKSNENLEAWNKFVLNSHRAGKREYDEAAPHQAPPKRPAMETPVPVAADNGWEADEEEEGEEIVDRDADIEKCKLRNKKKMENLHIADFLGPSGSKGLKPRNKFEAVIIEQLNKMDDAALEALFLKSPEEYNLWVKESDFTHKVVTQQQEWKAKMKDPNFKSRASANFDVSKGEFDNMRHFDNASKATRQEIQQLAEQFANLDRDAKLLTPMEFVLREHALLKNVSADAIRVLCNRPPLPPLPPPPPPPKPKPAPVQPISLGNINFVALAQQLIASGIKLPLPIVTPPVVSTPAPVITPIPAALPISPNSDFLKQQLSTAMSSPALLSLYPKLTAGAYEQLAQFIKTTTVKN", "soluble on expression in E. coli": "not soluble"}, {"sequence": "MSDTPSTSSVFLPTWPTRRTDANLYPNGSTKSDELVLHDYGLEEIPMRYHIEQPEEDYDPQNVKKLDLTHNSFVILRGLTTFNNVSVLDVSFNSLSALPEDIGTLSSLTTLIARNNLLEHLPKGLQLLENLEHLYLSGNRLEYVPPVILTMRKLKTLHLGGNYIDSCPSNISVLTLLRVLYLGGNRLREIPASIGCLDELENLGLCDNILETIPSTLGDLHYLETLSLHNNRLRTLPTDILNLRRLQQLSLRNNPLVHSFVHNMDLAPPSLKELSGRTVRQNYHKVPNLDEILPSDLVAYLGSACQCVNPECQGVYFDARVEHIKFVDFCGKYRVPLMQFLCSPRCSAGVPSVDYDTSSESEEEIEPIMRRVLLG", "soluble on expression in E. coli": "not soluble"}, {"sequence": "MSDTVEELVQRAKLAEQAERYDDMAAAMKKVTEQGQELSNEERNLLSVAYKNVVGARRSSWRVISSIEQKTEGSEKKQQLAKEYRVKVEQELNDICQDVLKLLDEFLIVKAGAAESKVFYLKMKGDYYRYLAEVASEDRAAVVEKSQKAYQEALDIAKDKMQPTHPIRLGLALNFSVFYYEILNTPEHACQLAKQAFDDAIAELDTLNEDSYKDSTLIMQLLRDNLTLWTSDVGAEDQEQEGNQEAGN", "soluble on expression in E. coli": "soluble"}, {"sequence": "MSDVTNTWNERYDTEEFVYGREPNAFLAGVSAMMPPGDVLCLAEGEGRNAVFLARQGHRVLAVDASAVGLSKAARLAEEHGVRIETLTTDLADLVIEPGRWDAIVSIFCHVPPPVRRVLHRQAVAGLRPGGLFVLEAYTPAQLELRTGGPPTVELLMTLADLREELAGLEFLQAREIERDVVEGRLHTGRGAVVQIVARKPLEHHHHHH", "soluble on expression in E. coli": "soluble"}, {"sequence": "MSEAESCEETSKEHRIWKKNVPYLYDTVVTKEVEWPSLSVQWMPDVTKTENSDSSMHRMIHGTHTCGGVQNHLMISKFTITTDTPEFDDAKWDSEREEFGGYGEGSAAKWDTEIKINHPGEVHRARYMPHNPFIIASRGPSDDVYIFDYTKHPSEPKDTKFRPQLRLKGHEGEGYGMSWSNTREGHLLTAGDDGMICHWDINANQTISGQIVPQSKFKGHSSNAEDVSFHALHNFVFGSVGDDRKLNLWDLRQSKPQLTAVGHTAEVNCITFNPFSEYILATGSVDKTVALWDMRNMRKKMYTLKHHNDEIFQVSFSPHYETVLASSGSDDRVIVWDISKIQDPSSSSAASSDSVPPEVIFIHAGHTGKVADFSWNPNRPWTICSSDEFNALQVWEVSNSLVSSEKWETEMI", "soluble on expression in E. coli": "not soluble"}, {"sequence": "MSEAEYFSHFISNGNGKLLEIPQRRGRQDGVFIDWLSFTLHEDSLLKVSGCPLVSDAEYMFVLSKKLEEILGFGITSRCKSKGNKFYDSMFRLGSEEVDYGEVHYGGQRNTVLIELKGVGCNIANPGWELRLKQFLEDSLRPRITRVDLALDFFDGEYTPEQALLDHDNGFFDNSNMRPKSEMVGTAWRREDGSGKTFYVGRKKNSRFVRVYEKGRQLGDKESKWVRFEIQFNHGDMEIPLDILINQGSYFSGAFPICQKFKNMPNPERFDYRKKVANLTFQHKLRYAKNAVGKLINFMFDMGFDSDEIVRYLKADLGYPKGLEPEKYSLAGLKESLKFGFIHEQPDVDLEVELEELGIIKFKQSDKFDPDKRLFDPHHDVESERQYQLYLDRMYDLHANQN", "soluble on expression in E. coli": "not soluble"}]}]}
